One molecule from article PMC9544338, “Restoration of the GTPase activity and cellular interactions of Gαo mutants by Zn^2+ in GNAO1 encephalopathy models” (Science Advances, 2022) can be followed below.

The test deals with T1, Gαo-GFP (C-terminally tagged) wild type (human, UniProt P09471 1-354).
T1 construct: Gαo (GNAO1); also called WT Gαo; source: N2a cells, transfected, in lysate; not shown: GFP, C-terminal, kept
Briefly: co-IP; N2a cells cotransfected with His6-RGS19 and Gαo-GFP (C-terminally tagged) variants, treated with 1 μM ZPT for 3 hours before IP of Gαo with a nanobody against GFP; Western blot; fold against DMSO-treated cells. The following applies: partners not purified.

T1 sequence (P09471 whole entry): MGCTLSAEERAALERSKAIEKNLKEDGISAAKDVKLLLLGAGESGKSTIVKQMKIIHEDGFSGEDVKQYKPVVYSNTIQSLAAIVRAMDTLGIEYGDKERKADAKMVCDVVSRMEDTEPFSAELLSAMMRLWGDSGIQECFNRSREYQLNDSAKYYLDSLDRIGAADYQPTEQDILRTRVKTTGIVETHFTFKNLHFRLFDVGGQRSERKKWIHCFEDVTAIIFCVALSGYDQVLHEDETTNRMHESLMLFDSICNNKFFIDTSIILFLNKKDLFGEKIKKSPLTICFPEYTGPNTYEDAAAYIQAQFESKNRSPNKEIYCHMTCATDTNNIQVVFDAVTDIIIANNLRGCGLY

B1: His6-RGS19 (natural protein, UniProt P49795 1-217, looked up)
chain: MPTPHEAEKQITGPEEADRPPSMSSHDTASPAAPSRNPCCLCWCCCCSCSWNQERRRAWQASRESKLQPLPSCEVCATPSPEEVQSWAQSFDKLMHSPAGRSVFRAFLRTEYSEENMLFWLACEELKAEANQHVVDEKARLIYEDYVSILSPKEVSLDSRVREGINKKMQEPSAHTFDDAQLQIYTLMHRDSYPRFLSSPTYRALLLQGPSQSSSEA
notes: RGS19 (regulator of G protein signaling 19); plasmid previously described; source: N2a cells, transfected, in lysate
For B1, the “fold increase of the interaction by ZPT over DMSO” value is about 2 fold.
